Measured values reported in patent US20210347873A1 (SHANGHAI PHARMAEXPLORER, published 2021).

T1: human APRIL protein (human, UniProt O75888 105-250, limits assumed)
T1 construct: Bought protein; also called recombinant APRIL protein
T1 sequence (looked up): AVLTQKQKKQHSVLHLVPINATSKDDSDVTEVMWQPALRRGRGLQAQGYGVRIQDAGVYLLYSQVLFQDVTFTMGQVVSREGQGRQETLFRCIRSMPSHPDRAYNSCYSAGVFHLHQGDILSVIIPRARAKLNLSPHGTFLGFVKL

T2: cynomolgus BLyS (full length, arginine to histidine at position 132) on CHO-K1 cells (cynomolgus, UniProt Q9Y275 1-285 (human entry))
T2 construct: also called cyno BLyS; CHO-K1 cynoBLyS
T2 chain: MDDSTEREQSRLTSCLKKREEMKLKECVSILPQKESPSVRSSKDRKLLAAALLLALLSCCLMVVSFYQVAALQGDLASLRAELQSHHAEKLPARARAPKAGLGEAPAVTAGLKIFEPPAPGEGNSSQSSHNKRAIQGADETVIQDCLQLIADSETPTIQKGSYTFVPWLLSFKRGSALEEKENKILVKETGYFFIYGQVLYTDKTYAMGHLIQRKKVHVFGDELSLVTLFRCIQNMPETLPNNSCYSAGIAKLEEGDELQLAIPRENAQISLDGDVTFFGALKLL


How the values were obtained:
[1] = biological target: T1, human APRIL protein; assay: ELISA, coated APRIL; antibody 0.107 nM
Outline: (§1)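 Human APRIL was coated (1.0 μg/mL, 4 °C overnight), and after blocking, BLyS antibodies bound for 1 h at 37 °C. Detection used HRP secondary antibody and TMB; A450 OD values are reported, with human IgG as control.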

[2] = biological target: T1, human APRIL protein; assay: ELISA, coated APRIL; antibody 0.00427 nM
Outline: as §1

[3] = biological target: T3, human BLyS (full length, arginine to histidine at position 132) on CHO-K1 cells (human, UniProt Q9Y275 1-285); assay: flow cytometry, CHO-K1 hBLyS cells, antibody 13.3 nM
T3 construct: also called hBLyS; CHO-K1 hBLyS

[4] = biological target: T3, human BLyS (full length, arginine to …); assay: flow cytometry, CHO-K1 hBLyS cells, antibody 2.67 nM
[5] = biological target: T3, human BLyS (full length, arginine to …); assay: flow cytometry, CHO-K1 hBLyS cells, antibody 66.7 nM
[6] = biological target: T2, cynomolgus BLyS (full length, arginine …); assay: flow cytometry, CHO-K1 cynoBLyS cells, antibody 0 nM
[7] = biological target: T3, human BLyS (full length, arginine to …); assay: flow cytometry, CHO-K1 hBLyS cells, antibody 0.0213 nM
[8] = biological target: T2, cynomolgus BLyS (full length, arginine …); assay: flow cytometry, CHO-K1 cynoBLyS cells, antibody 13.3 nM
[9] = biological target: T2, cynomolgus BLyS (full length, arginine …); assay: flow cytometry, CHO-K1 cynoBLyS cells, antibody 2.67 nM
[10] = biological target: T2, cynomolgus BLyS (full length, arginine …); assay: flow cytometry, CHO-K1 cynoBLyS cells, antibody 66.7 nM
[11] = biological target: T2, cynomolgus BLyS (full length, arginine …); assay: flow cytometry, CHO-K1 cynoBLyS cells, antibody 0.107 nM
[12] = biological target: T2, cynomolgus BLyS (full length, arginine …); assay: flow cytometry, CHO-K1 cynoBLyS cells, antibody 0.534 nM
[13] = biological target: T2, cynomolgus BLyS (full length, arginine …); assay: flow cytometry, CHO-K1 cynoBLyS cells, antibody 0.0213 nM

T3 sequence (Q9Y275 whole entry R130H): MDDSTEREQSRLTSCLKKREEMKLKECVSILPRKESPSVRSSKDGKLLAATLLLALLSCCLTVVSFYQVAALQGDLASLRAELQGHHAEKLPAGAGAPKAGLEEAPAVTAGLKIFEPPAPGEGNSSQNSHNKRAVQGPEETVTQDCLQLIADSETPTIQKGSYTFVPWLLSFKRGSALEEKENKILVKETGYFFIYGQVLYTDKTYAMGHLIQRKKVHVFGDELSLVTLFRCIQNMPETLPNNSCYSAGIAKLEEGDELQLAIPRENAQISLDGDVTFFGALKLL

Molecule	OD450 nm [1]	OD450 nm [2]	MFI [3]	MFI [4]	MFI [5]	MFI [6]	MFI [7]	MFI [8]	MFI [9]	MFI [10]	MFI [11]	MFI [12]	MFI [13]
mIgG Control (antibody)	0.0533	0.0587	–	–	–	–	–	–	–	–	–	–	–
hIgG Control (antibody)	0.0722	0.0693	–	–	–	–	–	–	–	–	–	–	–
97A3C2H4 (antibody, V domains shown, Mouse hybridoma monoclonal antibody purified on Protein G) VH: EVKLVESGGGLVQPGGSLKLSCAASGFTFSTYTMSWVRQTPEKRLEWVAYISYGGGSTSYPDTVKGRFTISRDNAKNTLYLQMSSLKSEDTAIYYCTRHVTVVENSMDYWGQGTSVTVSS VL: DILLTQSPDILSVSPGERVSFSCRASQSIGTSIHWYQQRTNGSPRLLIKYVSESFSGTPSRFSGSGSGTAFTLTINSVESEDIADYYCQQTHSWPWTFGGGTKLEIK	–	–	460 MFI	448 MFI	525 MFI	20 MFI	69.8 MFI	943 MFI	956 MFI	987 MFI	243 MFI	682 MFI	120 MFI
97A3C2H4 (antibody, V domains shown, Mouse hybridoma antibody purified on Protein G) VH: EVKLVESGGGLVQPGGSLKLSCAASGFTFSTYTMSWVRQTPEKRLEWVAYISYGGGSTSYPDTVKGRFTISRDNAKNTLYLQMSSLKSEDTAIYYCTRHVTVVENSMDYWGQGTSVTVSS VL: DILLTQSPDILSVSPGERVSFSCRASQSIGTSIHWYQQRTNGSPRLLIKYVSESFSGTPSRFSGSGSGTAFTLTINSVESEDIADYYCQQTHSWPWTFGGGTKLEIK	0.0561	0.0625	–	–	–	–	–	–	–	–	–	–	–
L1D12 (antibody, V domains shown, From a human naive scFv phage library; also called human BLyS antibody L1D12; LID12) VH: QVQLVQSGGGLVQPGGSLRLSCAASGFTVSSNYMSWVRQAPGKGLEWVSVIYSGGSTYYADSVKGRFTISRDNSKNTLYLQMNSLRAEDTAVYYCARGFHDILTGYGMDVWGQGTTVTVSS VL: SSELTQDPAVSVALGQTVRITCQGDSLRNYYAGWYQQKPGQAPVLVIYGKNNRPSGIPDRFSGSSSGNTASLTITGTQAEDEADYYCSSRDNSGTHLVEFGGGTKLTVL	–	–	522 MFI	503 MFI	550 MFI	21.2 MFI	89.5 MFI	1130 MFI	1170 MFI	1180 MFI	364 MFI	900 MFI	135 MFI
L1D12 (antibody, human IgG1, V domains shown, also called LID12) VH: QVQLVQSGGGLVQPGGSLRLSCAASGFTVSSNYMSWVRQAPGKGLEWVSVIYSGGSTYYADSVKGRFTISRDNSKNTLYLQMNSLRAEDTAVYYCARGFHDILTGYGMDVWGQGTTVTVSS VL: SSELTQDPAVSVALGQTVRITCQGDSLRNYYAGWYQQKPGQAPVLVIYGKNNRPSGIPDRFSGSSSGNTASLTITGTQAEDEADYYCSSRDNSGTHLVEFGGGTKLTVL	0.0678	0.121	–	–	–	–	–	–	–	–	–	–	–
8E7D9C7F5 (antibody, V domains shown, Mouse hybridoma monoclonal antibody purified on Protein G) VH: QVQLQQSGVELARPGASVKLSCKASGYTFTSYGISWVKQRTGQALEWIGEIYPRSGNTYYNEKFKGKATLTADKSSSTAYMELRSLTSEDSAVYFCARSGPITTLVATDYGMDYWGQGTSVTVSS VL: DIVLTQSPASLAVSLGQRATISCRASKSVSTSSYSYMHWYQQKPGQPPKLLIKFASNLESGVPARFSGSGSGTDFTLNIHPVEEEDAATYYCQHSREFPYTFGGGTKLEIK	–	–	570 MFI	532 MFI	596 MFI	19.8 MFI	122 MFI	1170 MFI	1130 MFI	1170 MFI	477 MFI	1050 MFI	165 MFI
2-1G11 (antibody, V domains shown, From a human naive scFv phage library; also called human BLyS antibody 2-1G11) VH: EVQLVESRGGVVQPGRSLRLSCAASGFTFSSYGMHWVRQAPGKGLEWVAVISYDGSNKYYADSVKGRFTISRDNSKNTLYLQMNSLRAEDAAVYYCARDRVDILTGYSIYGMDVWGQGTTVTVSS VL: EIVMTQSPATLSLSPGERATLSCRASQSVSSYLAWYQQKPGQAPRLLIYDASKRATGIPARFSGSGSGTDFTLTISSLEPEDFAVYYCQQRSNWPLTFGGGTKVEIK	–	–	633 MFI	627 MFI	645 MFI	21.2 MFI	180 MFI	1450 MFI	1480 MFI	1460 MFI	816 MFI	1400 MFI	332 MFI
L9G7 (antibody, human IgG1, V domains shown) VH: QIQLVQSGAEVKKPGASVKVSCKASGYTFTSYGISWVRQAPGQGLEWMGWISAYNGNTNYAQKLQGRVTMTTDTSTSTAYMELRSLRSDDTAVYYCARTYYDILTGYYYYGMDVWGQGTTVTVSS VL: EIVLTQSPGTLSLSPGERATLSCRTSQSVDTYLAWYQQKPGQAPRLLIYDASNRATGIPARFSGSGSGTDFTLTISSLEPEDFAVYYCQQRSNWPLTFGGGTKVEIK	0.0861	0.161	–	–	–	–	–	–	–	–	–	–	–
L9G7 (antibody, V domains shown, From a human naive scFv phage library; also called human BLyS antibody L9G7) VH: QIQLVQSGAEVKKPGASVKVSCKASGYTFTSYGISWVRQAPGQGLEWMGWISAYNGNTNYAQKLQGRVTMTTDTSTSTAYMELRSLRSDDTAVYYCARTYYDILTGYYYYGMDVWGQGTTVTVSS VL: EIVLTQSPGTLSLSPGERATLSCRTSQSVDTYLAWYQQKPGQAPRLLIYDASNRATGIPARFSGSGSGTDFTLTISSLEPEDFAVYYCQQRSNWPLTFGGGTKVEIK	–	–	630 MFI	591 MFI	697 MFI	20.6 MFI	93 MFI	1280 MFI	1280 MFI	1340 MFI	387 MFI	1010 MFI	143 MFI
111D10D6G3 (antibody, V domains shown, Mouse hybridoma monoclonal antibody purified on Protein G) VH: QVQLQQPGAELVKPGASVKMSCKASGYTFTRHWITWVKQRPGQGLEWIGDIFPGSGSINYNEKFKSEATLTVEKSSSTAYMQLSSLTSEDSAVYYCARGDVDVWGTGTTVTVSS VL: DIQMTQSPSSLSASLGERVSLTCRASQEIRGYLSWLQQKPNGTIKRLIYAASTLDSGVPKRFSATRSGSDFSLTISSLESEDFADYYCLQYASYPFTFGSGTKLEIK	–	–	276 MFI	265 MFI	296 MFI	20.4 MFI	65.5 MFI	524 MFI	510 MFI	539 MFI	222 MFI	478 MFI	108 MFI
111D10D6G3 (antibody, V domains shown, Mouse hybridoma antibody purified on Protein G) VH: QVQLQQPGAELVKPGASVKMSCKASGYTFTRHWITWVKQRPGQGLEWIGDIFPGSGSINYNEKFKSEATLTVEKSSSTAYMQLSSLTSEDSAVYYCARGDVDVWGTGTTVTVSS VL: DIQMTQSPSSLSASLGERVSLTCRASQEIRGYLSWLQQKPNGTIKRLIYAASTLDSGVPKRFSATRSGSDFSLTISSLESEDFADYYCLQYASYPFTFGSGTKLEIK	0.0536	0.0538	–	–	–	–	–	–	–	–	–	–	–
